B1: N-terminal Strep2-(G4S)3-tagged PhaC purified from R. eutropha (enzyme, Ralstonia eutropha H16, UniProt P23608 2-589, looked up)
chain: ATGKGAAASTQEGKSQPFKVTPGPFDPATWLEWSRQWQGTEGNGHAAASGIPGLDALAGVKIAPAQLGDIQQRYMKDFSALWQAMAEGKAEATGPLHDRRFAGDAWRTNLPYRFAAAFYLLNARALTELADAVEADAKTRQRIRFAISQWVDAMSPANFLATNPEAQRLLIESGGESLRAGVRNMMEDLTRGKISQTDESAFEVGRNVAVTEGAVVFENEYFQLLQYKPLTDKVHARPLLMVPPCINKYYILDLQPESSLVRHVVEQGHTVFLVSWRNPDASMAGSTWDDYIEHAAIRAIEVARDISGQDKINVLGFCVGGTIVSTALAVLAARGEHPAASVTLLTTLLDFADTGILDVFVDEGHVQLREATLGGGAGAPCALLRGLELANTFSFLRPNDLVWNYVVDNYLKGNTPVPFDLLFWNGDATNLPGPWYCWYLRHTYLQNELKVPGKLTVCGVPVDLASIDVPTYIYGSREDHIVPWTAAYASTALLANKLRFVLGASGHIAGVINPPAKNKRSHWTNDALPESPQQWLAGAIEHHGSWWPDWTAWLAGQAGAKRAAPANYGNARYRAIEPAPGRYVKAKA
B2: N-terminal-Strep2-(G4S)3-tagged PhaC purified from E. coli (enzyme, Ralstonia eutropha H16, UniProt P23608 2-589, looked up)
chain: B1 chain

Biological target: the molecule itself
Assay: SEC

Row | Protein | stoichiometry N
1 | B1 | 2
2 | B2 | 2
